# Experimental data published in the supplement of paper PMC10065799, “High-throughput profiling of sequence recognition by tyrosine kinases and SH2 domains using bacterial peptide display” (eLife, 2023).
# How the values were obtained:
# [1] = target: Jak2 (UniProt O60674); experiment: phosphorylation enrichment, bacterial display (enrichment ratio); higher = better substrate or ligand; peptides without Tyr show the background
# [2] = target: Fes (UniProt P07332); experiment: as above
# [3] = test system: AncSZ; experiment: as above
# [4] = test system: c-Src; experiment: as above
# [5] = target: FGFR1 (UniProt P11362); experiment: as above
# FGFR1, sequence (P11362 whole entry, looked up): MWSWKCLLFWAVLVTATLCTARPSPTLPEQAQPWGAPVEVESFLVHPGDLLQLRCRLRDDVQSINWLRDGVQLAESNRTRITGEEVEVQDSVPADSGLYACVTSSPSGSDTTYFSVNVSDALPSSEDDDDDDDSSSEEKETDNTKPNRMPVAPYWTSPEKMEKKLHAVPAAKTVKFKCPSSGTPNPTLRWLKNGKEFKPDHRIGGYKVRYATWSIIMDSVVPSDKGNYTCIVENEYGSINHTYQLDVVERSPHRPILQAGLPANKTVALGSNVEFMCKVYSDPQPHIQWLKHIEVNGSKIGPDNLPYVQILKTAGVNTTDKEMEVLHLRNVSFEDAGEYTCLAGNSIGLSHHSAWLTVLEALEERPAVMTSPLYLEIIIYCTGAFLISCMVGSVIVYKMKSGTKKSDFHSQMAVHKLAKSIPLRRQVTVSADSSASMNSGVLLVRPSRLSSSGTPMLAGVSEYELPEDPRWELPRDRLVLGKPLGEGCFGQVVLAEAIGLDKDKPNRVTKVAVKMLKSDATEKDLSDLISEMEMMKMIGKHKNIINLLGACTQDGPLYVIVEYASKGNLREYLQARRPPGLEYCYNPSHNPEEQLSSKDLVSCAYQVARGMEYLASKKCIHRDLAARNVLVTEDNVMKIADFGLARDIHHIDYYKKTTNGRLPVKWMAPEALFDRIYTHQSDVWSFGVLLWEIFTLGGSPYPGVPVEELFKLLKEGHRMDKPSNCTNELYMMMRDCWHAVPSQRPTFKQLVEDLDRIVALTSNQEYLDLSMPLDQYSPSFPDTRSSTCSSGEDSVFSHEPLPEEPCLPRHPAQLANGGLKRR
# [6] = test system: c-Abl (mouse); experiment: as above
# [7] = target: MERTK (UniProt Q12866); experiment: as above
# MERTK, sequence (Q12866 whole entry, looked up): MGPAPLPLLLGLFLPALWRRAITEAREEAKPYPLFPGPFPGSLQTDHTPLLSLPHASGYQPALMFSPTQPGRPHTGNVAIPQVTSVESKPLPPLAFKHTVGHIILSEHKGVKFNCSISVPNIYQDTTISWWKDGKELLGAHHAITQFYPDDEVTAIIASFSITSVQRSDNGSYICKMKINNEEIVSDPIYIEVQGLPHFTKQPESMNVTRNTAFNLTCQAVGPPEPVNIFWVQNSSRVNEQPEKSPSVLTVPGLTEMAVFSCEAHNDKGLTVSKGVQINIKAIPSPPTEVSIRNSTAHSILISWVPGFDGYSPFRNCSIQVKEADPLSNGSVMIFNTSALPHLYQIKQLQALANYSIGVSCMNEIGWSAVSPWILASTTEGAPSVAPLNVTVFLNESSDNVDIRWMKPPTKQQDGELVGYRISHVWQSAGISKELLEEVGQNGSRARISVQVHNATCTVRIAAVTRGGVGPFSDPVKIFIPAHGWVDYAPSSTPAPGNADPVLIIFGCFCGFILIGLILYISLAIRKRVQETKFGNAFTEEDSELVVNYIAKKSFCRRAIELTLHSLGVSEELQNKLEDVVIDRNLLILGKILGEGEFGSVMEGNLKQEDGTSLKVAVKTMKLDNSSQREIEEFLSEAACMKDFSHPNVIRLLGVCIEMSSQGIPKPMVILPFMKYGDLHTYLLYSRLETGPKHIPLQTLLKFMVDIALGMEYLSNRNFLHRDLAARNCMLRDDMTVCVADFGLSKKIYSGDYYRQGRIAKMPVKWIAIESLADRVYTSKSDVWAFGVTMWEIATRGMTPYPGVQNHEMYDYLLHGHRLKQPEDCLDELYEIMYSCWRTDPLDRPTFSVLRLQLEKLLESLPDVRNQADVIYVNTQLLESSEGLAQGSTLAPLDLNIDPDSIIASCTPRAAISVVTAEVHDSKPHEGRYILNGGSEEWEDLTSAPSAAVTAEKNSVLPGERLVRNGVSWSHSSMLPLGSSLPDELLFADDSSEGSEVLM
# [8] = target: Hck (UniProt P08631); experiment: as above
# Hck, sequence (P08631 whole entry, looked up): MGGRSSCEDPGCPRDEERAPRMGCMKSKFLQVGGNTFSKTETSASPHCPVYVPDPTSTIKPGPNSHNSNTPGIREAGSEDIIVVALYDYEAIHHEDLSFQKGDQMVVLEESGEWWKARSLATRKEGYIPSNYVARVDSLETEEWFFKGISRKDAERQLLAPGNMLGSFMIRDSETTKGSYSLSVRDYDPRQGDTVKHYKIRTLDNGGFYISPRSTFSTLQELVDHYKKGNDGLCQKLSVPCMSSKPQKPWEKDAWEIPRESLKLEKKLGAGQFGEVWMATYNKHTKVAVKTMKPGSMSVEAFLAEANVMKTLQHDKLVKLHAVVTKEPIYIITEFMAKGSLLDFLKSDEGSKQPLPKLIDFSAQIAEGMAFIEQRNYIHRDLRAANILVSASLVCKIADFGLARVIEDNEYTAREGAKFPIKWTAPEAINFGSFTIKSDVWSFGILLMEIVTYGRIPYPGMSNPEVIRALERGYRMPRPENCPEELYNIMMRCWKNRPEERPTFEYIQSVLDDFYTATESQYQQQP
# [9] = target: EPHB1 (UniProt P54762); experiment: as above
# EPHB1, sequence (P54762 whole entry, looked up): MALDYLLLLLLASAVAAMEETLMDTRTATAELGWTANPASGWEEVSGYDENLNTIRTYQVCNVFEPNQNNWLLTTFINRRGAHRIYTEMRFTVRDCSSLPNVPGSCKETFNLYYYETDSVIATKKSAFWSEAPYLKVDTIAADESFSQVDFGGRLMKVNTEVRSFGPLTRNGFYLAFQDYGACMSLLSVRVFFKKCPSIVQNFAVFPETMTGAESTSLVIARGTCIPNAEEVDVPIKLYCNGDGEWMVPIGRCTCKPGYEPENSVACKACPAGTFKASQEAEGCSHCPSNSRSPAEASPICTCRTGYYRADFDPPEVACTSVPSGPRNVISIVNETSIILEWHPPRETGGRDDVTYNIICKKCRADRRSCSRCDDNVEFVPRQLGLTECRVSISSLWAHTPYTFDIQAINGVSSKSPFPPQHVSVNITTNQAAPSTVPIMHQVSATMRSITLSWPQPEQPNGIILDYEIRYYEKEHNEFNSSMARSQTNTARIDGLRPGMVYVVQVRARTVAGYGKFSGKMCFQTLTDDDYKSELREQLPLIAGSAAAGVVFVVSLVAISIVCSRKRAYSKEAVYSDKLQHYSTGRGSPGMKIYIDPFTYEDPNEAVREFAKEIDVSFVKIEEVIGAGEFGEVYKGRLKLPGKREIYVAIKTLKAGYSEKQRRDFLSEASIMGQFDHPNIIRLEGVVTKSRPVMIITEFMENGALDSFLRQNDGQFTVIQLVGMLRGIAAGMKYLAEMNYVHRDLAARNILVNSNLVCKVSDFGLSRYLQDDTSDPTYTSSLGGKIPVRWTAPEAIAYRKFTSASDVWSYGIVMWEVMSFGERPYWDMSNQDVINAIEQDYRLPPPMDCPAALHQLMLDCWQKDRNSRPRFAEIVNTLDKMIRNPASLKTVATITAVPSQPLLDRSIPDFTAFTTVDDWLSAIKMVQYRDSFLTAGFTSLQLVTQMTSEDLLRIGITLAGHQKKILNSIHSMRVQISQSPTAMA
# [10] = test system: Fer (mouse); experiment: as above
# [11] = target: Fyn (UniProt P06241); experiment: as above
# [12] = target: EPHB2 (UniProt P29323); experiment: as above
# [13] = target: FGFR3 (UniProt P22607); experiment: as above
# FGFR3, sequence (P22607 whole entry, looked up): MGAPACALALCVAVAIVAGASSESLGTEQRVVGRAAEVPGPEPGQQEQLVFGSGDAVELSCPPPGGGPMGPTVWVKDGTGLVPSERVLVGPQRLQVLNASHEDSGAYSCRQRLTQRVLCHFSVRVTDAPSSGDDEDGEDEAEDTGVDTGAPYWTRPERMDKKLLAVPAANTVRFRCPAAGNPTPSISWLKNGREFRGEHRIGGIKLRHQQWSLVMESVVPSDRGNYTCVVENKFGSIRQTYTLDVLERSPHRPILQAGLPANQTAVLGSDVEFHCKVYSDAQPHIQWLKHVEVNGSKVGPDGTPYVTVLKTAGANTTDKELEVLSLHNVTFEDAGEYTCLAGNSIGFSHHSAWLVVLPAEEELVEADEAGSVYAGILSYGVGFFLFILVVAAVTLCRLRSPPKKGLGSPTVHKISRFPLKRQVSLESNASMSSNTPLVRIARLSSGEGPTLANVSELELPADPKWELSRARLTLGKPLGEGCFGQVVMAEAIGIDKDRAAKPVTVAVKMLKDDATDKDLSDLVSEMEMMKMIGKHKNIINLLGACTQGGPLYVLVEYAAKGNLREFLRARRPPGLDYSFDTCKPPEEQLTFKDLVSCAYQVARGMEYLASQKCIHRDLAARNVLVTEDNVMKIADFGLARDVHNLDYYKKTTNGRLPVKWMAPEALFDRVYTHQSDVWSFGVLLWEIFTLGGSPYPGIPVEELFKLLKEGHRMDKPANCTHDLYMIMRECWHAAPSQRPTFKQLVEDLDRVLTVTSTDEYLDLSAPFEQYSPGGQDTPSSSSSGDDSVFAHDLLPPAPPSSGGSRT
# [14] = target: c-Src SH2; experiment: SH2 binding enrichment of the phosphorylated peptide, bacterial display (enrichment ratio); higher = better substrate or ligand; peptides without Tyr show the background
# [15] = target: Grb2 SH2 (UniProt P62993); experiment: as above
# [16] = target: SHP2-C SH2; experiment: as above
# 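For SH2 binding enrichment of the phosphorylated peptide, bacterial display in this document: peptide library displayed on the E. coli surface as eCPX fusions, selected cells deep-sequenced, score is each peptide's frequency after selection divided by its frequency in the input.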
# 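For phosphorylation enrichment, bacterial display in this document: 11-residue human phosphosite peptides and single-mutation variants displayed on the E. coli surface, counted by deep sequencing, each peptide's frequency after selection divided by its frequency in the unselected input library; frequency after pTyr selection over input frequency; kinase dosed for 20-30% of maximal phosphorylation in three min.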
# Fes, sequence (P07332 whole entry, looked up): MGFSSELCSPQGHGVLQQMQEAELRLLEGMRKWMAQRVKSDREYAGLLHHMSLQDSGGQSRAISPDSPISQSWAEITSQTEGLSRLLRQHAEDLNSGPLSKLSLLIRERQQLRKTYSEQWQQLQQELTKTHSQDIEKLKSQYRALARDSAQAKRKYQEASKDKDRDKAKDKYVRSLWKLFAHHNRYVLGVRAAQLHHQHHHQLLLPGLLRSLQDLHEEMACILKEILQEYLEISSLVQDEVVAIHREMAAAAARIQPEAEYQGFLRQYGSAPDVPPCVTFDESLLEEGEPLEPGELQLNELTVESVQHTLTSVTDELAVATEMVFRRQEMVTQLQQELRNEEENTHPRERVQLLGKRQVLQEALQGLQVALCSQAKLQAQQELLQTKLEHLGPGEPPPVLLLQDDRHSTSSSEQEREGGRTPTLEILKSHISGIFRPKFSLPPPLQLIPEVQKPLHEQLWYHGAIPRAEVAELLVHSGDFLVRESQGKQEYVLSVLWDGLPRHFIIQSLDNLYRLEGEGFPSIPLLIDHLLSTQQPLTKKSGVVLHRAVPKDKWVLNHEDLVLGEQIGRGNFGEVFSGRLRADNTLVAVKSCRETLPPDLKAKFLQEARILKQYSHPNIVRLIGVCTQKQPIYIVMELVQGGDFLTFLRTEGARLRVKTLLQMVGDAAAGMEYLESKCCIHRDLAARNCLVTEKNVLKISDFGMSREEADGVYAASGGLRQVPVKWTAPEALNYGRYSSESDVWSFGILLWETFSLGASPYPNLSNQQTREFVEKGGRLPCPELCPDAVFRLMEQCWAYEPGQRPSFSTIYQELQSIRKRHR
Sequence,phosphorylation enrichment [1],phosphorylation enrichment [2],phosphorylation enrichment [3],phosphorylation enrichment [4],phosphorylation enrichment [5],phosphorylation enrichment [6],phosphorylation enrichment [7],phosphorylation enrichment [8],phosphorylation enrichment [9],phosphorylation enrichment [10],phosphorylation enrichment [11],phosphorylation enrichment [12],phosphorylation enrichment [13],SH2 binding enrichment [14],SH2 binding enrichment [15],SH2 binding enrichment [16]
GEVLVYVEDPA [FLNA_Y319],1.34,1.41,1.33,0.636,0.694,0.917,0.478,0.589,0.798,0.85,0.529,0.728,0.81,0.45,0.706,0.553
GGMTEYKLVVV [KRAS_Y4],0.685,0.929,0.852,0.369,1.01,0.539,0.368,0.446,0.514,0.423,0.488,0.569,0.776,0.649,0.985,2.14
GGPTYYIDTNA [ACTL6A_Y69],0.727,0.893,0.885,0.778,1.09,0.555,1.08,0.899,0.698,0.407,0.926,0.514,0.963,0.679,0.822,0.694
GGQVFHNSEYG [FLT4_Y1333_Y1333H],0.67,0.712,0.581,0.425,0.386,0.857,0.314,0.377,0.438,0.349,0.362,0.431,0.535,0.474,0.665,0.655
GGQVFYNSEFG [FLT4_Y1333_YF],1.25,1.11,1.09,0.838,0.551,0.884,0.546,0.532,0.619,0.53,0.479,0.617,0.766,0.45,0.623,0.735
GHLYAYDWIRI [BEST1_Y227_S231R],0.941,3.03,1.44,2.28,4.35,0.857,9.27,3.12,3.44,15.8,1.84,2.42,2.73,1.97,1.25,1.31
GHNDVYISEHV [GRIN2A_Y1423],0.407,0.618,0.552,0.395,0.393,0.33,0.332,0.438,0.331,0.317,0.416,0.447,0.478,0.456,1.1,0.535
GHNNVYISEHV [GRIN2A_Y1423_D1421N],0.769,0.6,0.734,0.425,0.421,0.522,0.419,0.476,0.374,0.393,0.475,0.459,0.463,0.469,0.915,0.759
GITTGYLVLKE [DNMT3B_Y588_A585T],0.616,0.797,0.668,0.371,0.456,0.389,0.334,0.438,0.39,0.542,0.404,0.532,0.572,0.746,0.907,2.06
GKMPQYLESMQ [CYB5R3_Y130_S128P],0.73,0.701,0.741,0.459,0.517,0.614,0.473,0.466,0.492,0.304,0.537,0.412,0.554,0.571,0.906,0.932
GLDGSYLLRDS [SH2D1A_Y29],0.578,0.622,0.574,0.397,0.426,0.471,0.413,0.563,0.371,0.39,0.413,0.387,0.464,0.42,0.756,0.636
GLRQGYFVEAQ [APCS_Y142],0.807,1.08,0.945,0.327,0.559,0.529,0.36,0.408,0.526,0.42,0.366,0.505,0.637,0.618,0.85,0.718
GNEEAYGRSHI [FAM171B_Y522],0.905,0.823,0.825,0.471,0.378,0.706,0.455,0.471,0.448,0.456,0.425,0.438,0.575,0.444,0.796,0.801
GNLLIYTEFGK [HGD_Y166],1.14,1.28,1.28,5.93,0.56,3.12,4.24,4.65,1.81,0.54,7.36,1.13,0.731,0.471,0.687,0.668
GPGLVYGVANK [FLNB_Y1833],0.718,0.689,0.531,2.83,0.648,0.545,0.422,3.44,0.421,0.51,1.59,0.405,0.483,0.551,0.732,0.643
GQLIFYAPPEW [CNTN6_Y315],1.5,1.18,1.39,0.822,0.513,2.95,3.46,0.829,0.938,2.04,0.576,3.08,0.731,0.781,1.09,0.963
GQSKGYRPKLY [SIPA1L3_Y1376],0.416,0.489,0.43,0.387,0.357,0.329,0.431,0.4,0.316,0.411,0.45,0.393,0.454,0.531,0.662,0.824

Sequence,phosphorylation enrichment [1],phosphorylation enrichment [2],phosphorylation enrichment [3],phosphorylation enrichment [4],phosphorylation enrichment [5],phosphorylation enrichment [6],phosphorylation enrichment [7],phosphorylation enrichment [8],phosphorylation enrichment [9],phosphorylation enrichment [10],phosphorylation enrichment [11],phosphorylation enrichment [12],phosphorylation enrichment [13],SH2 binding enrichment [14],SH2 binding enrichment [15],SH2 binding enrichment [16]
GREAEYSEKHG [EPHB4_Y574_D576E],0.59,0.697,0.681,0.396,0.418,0.631,0.368,0.444,0.514,0.398,0.354,0.487,0.544,0.442,0.742,0.476
GRKTLYSFFSP [UNG_Y8_Q4R],0.91,0.825,0.529,1.9,0.571,0.56,12,2.26,0.709,3.82,1.13,0.603,0.641,1.17,1.57,0.978
GRLPEYNTPIA [CCDC151_Y542_R545P],0.662,0.643,0.704,0.463,0.388,0.716,0.407,0.325,0.515,0.317,0.442,0.432,0.397,0.841,0.807,0.479
GSERRYSREGG [PTPRN2_Y139],0.45,0.468,0.703,0.463,0.4,0.46,0.415,0.356,0.5,0.386,0.479,0.413,0.412,0.475,0.678,0.646
GSETPYMDRTP [ESS2_Y335_V336M],0.499,0.715,0.662,0.454,0.431,0.424,0.365,0.365,0.571,0.363,0.344,0.413,0.413,0.49,1.05,0.788
GSSEGYLHMVH [NIPBL_Y247_D246G],0.617,0.679,0.616,0.403,0.388,0.491,0.419,0.396,0.333,0.424,0.368,0.427,0.474,0.477,0.794,0.9
GTAPSYGNPSS [CD19_Y378],0.594,0.56,0.517,0.496,0.38,0.589,0.432,0.336,0.407,0.299,0.358,0.362,0.494,0.45,0.907,0.556
GTGTAYLCGVK [ALPL_Y117_A114G],0.675,0.754,0.694,0.348,0.446,0.685,0.379,0.395,0.551,0.511,0.435,0.412,0.489,0.543,0.902,0.679
GYIISYREEEQ,1.53,2.14,1.79,0.516,0.532,0.909,0.539,0.473,0.48,0.596,0.546,0.599,0.586,0.527,0.857,1.04
HDRGNYVQLNM [RECQL4_Y353_R355Q],0.55,1.1,0.744,0.442,1.99,0.552,0.686,0.508,8.72,0.674,0.493,3.46,1.35,1.95,0.986,1.18
HELYVYKSDEN [DOCK3_Y548_C550S],1.75,2.14,1.7,0.917,0.684,1.19,0.487,0.835,1.28,0.879,0.849,0.912,1.32,0.584,1.04,0.772
HFEFKYVINAI [MAOA_Y268_C266F_YF],1.81,2.11,1.66,0.576,0.391,1.26,0.678,0.668,0.686,0.829,0.441,0.89,0.854,0.561,0.814,0.772
HFGNNYRDVLQ [MACC1_Y803_YF],1.06,1.72,0.851,0.65,0.711,0.848,0.64,0.594,0.648,0.558,0.614,0.627,0.68,0.472,0.909,2.13
HGAKVYIDPFT [EPHB4_Y590_T587A],0.761,1.04,0.986,0.713,1.46,0.831,0.535,0.792,1.08,0.715,0.792,0.975,0.912,0.592,0.712,0.668
HGTKVYIDPFT [EPHB4_Y590],0.815,0.705,0.602,0.49,0.711,0.725,1.03,0.628,0.788,0.426,0.601,0.66,0.688,0.788,1.21,1.62
HHTDECEFDEL [TGM1_Y134_Y134C_YF],1.05,1.1,1.07,0.727,0.605,0.858,0.471,0.586,0.423,0.463,0.488,0.426,0.545,0.585,1.12,0.628
